This is an account of results in the supplement of paper PMC10899765.

Conditions in all cases: 20 nM; 72 h
Data set [1] has as its system MCF10A. In words: percent viability (nuclei count relative to siNT); higher = more viable cells. As to the method:
(§1)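 After 72 h, cells were fixed and stained with Hoechst and anti-fibrillarin, and nucleoli per nucleus were counted with CellProfiler. Values are plate-adjusted percent effect for the one-nucleolus and 5+ nucleoli phenotypes, normalised to siNT (0%) and to the positive controls siNOL11 or siKIF11 (100%), as the mean of biological triplicates. Percent viability is the nuclei count relative to siNT.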

Data set [2] relates to MCF10A. Put plainly: 5+ nucleoli phenotype percent effect (relative to siNT 0% and siKIF11 100%); higher = more cells with five or more nucleoli. Here is the method: as §1
For data set [3], the system named is MCF10A. Put plainly: one-nucleolus phenotype percent effect (relative to siNT 0% and siNOL11 100%); higher = more cells with one nucleolus (ribosome biogenesis inhibition). Here is the method: as §1

Regarding “GUCCUCCAGGCCAUGAGCUGCGG [hsa-miR-4691-5p]”, the percent viability in data set [1] was determined as 89.2%. Besides, the “5+ nucleoli phenotype percent effect” value in data set [2] was 47.9%. Also, the “one-nucleolus phenotype percent effect” value in data set [3] was -11.3%.

For GUGAAAUGUUUAGGACCACUAG [hsa-miR-203a], the percent viability in data set [1] was found to be 40.9%. In addition, the “5+ nucleoli phenotype percent effect” value in data set [2] was 3.03%. For the same sequence, the “one-nucleolus phenotype percent effect” value in data set [3] turned out to be 10.2%.

GUGAACGGGCGCCAUCCCGAGG [hsa-miR-887]: the percent viability in data set [1] was determined as 73.2%. The “5+ nucleoli phenotype percent effect” value in data set [2] was -3.19%. In addition, the “one-nucleolus phenotype percent effect” value in data set [3] was -1.47%.

On to GUGAAGGCCCGGCGGAGA [hsa-miR-6126], for which the percent viability in data set [1] amounted to 77.8%. Further, the “5+ nucleoli phenotype percent effect” value in data set [2] is -28.6%. Moreover, the “one-nucleolus phenotype percent effect” value in data set [3] is -11.8%.

With GUGAAUUACCGAAGGGCCAUAA [hsa-miR-183-3p], in data set [1], the percent viability stood at 56.8%. Also, the “5+ nucleoli phenotype percent effect” value in data set [2] is -32%. Besides, the “one-nucleolus phenotype percent effect” value in data set [3] is 9.97%.

For the sequence GUGACAUCACAUAUACGGCAGC [hsa-miR-489], in data set [1], the percent viability amounted to 22.4%. Moreover, the “5+ nucleoli phenotype percent effect” value in data set [2] was -33.1%. For the same sequence, the “one-nucleolus phenotype percent effect” value in data set [3] amounted to 53.7%.

With GUGACUGAUACCUUGGAGGCAU [hsa-miR-4439], in data set [1], the percent viability amounted to 56.4%. Further, in data set [2], the “5+ nucleoli phenotype percent effect” value was -27.6%. Besides, the “one-nucleolus phenotype percent effect” value in data set [3] is -2.03%.

As for GUGAGACUUCUCUCCCUUCAG [hsa-miR-6864-3p], the percent viability in data set [1] was determined as 41.4%. Also, the “5+ nucleoli phenotype percent effect” value in data set [2] is -9.96%. In addition, the “one-nucleolus phenotype percent effect” value in data set [3] amounted to 14.5%.

In the case of “GUGAGCCAGUGGAAUGGAGAGG [hsa-miR-6807-5p]”, the percent viability in data set [1] turned out to be 74.2%. Further, the “5+ nucleoli phenotype percent effect” value in data set [2] stood at 16.4%. Also, the “one-nucleolus phenotype percent effect” value in data set [3] was -20.6%.

As to GUGAGGACUCGGGAGGUGG [hsa-miR-1224-5p], the percent viability in data set [1] came to 53.3%. Moreover, in data set [2], the “5+ nucleoli phenotype percent effect” value was -12.6%. Moreover, in data set [3], the “one-nucleolus phenotype percent effect” value is 16.9%.

For the sequence “GUGAGGAGGGGCUGGCAGGGAC [hsa-miR-6858-5p]”, the percent viability in data set [1] came to 84.1%. Moreover, the “5+ nucleoli phenotype percent effect” value in data set [2] worked out at 7.04%. The “one-nucleolus phenotype percent effect” value in data set [3] was -12.2%.

For the sequence “GUGAGGCGGGGCCAGGAGGGUGUGU [hsa-miR-6765-5p]”, the percent viability in data set [1] was determined as 72.9%. The “5+ nucleoli phenotype percent effect” value in data set [2] was found to be 16%. For the same sequence, the “one-nucleolus phenotype percent effect” value in data set [3] is -21.4%.

As for GUGAGGGACUGGGAUUUGUGG [hsa-miR-6834-5p], in data set [1], the percent viability amounted to 81.4%. Further, the “5+ nucleoli phenotype percent effect” value in data set [2] stood at 23.5%. For the same sequence, the “one-nucleolus phenotype percent effect” value in data set [3] was -28.7%.

Consider “GUGAGGGCAUGCAGGCCUGGAUGGGG [hsa-miR-1226-5p]”, for which, in data set [1], the percent viability was found to be 114%. The “5+ nucleoli phenotype percent effect” value in data set [2] is 53.3%. The “one-nucleolus phenotype percent effect” value in data set [3] was -14.2%.

On to “GUGAGUAGUGGCGCGCGGCGGC [hsa-miR-6869-5p]”, for which the percent viability in data set [1] stood at 32.4%. In addition, the “5+ nucleoli phenotype percent effect” value in data set [2] was -16.7%. Also, in data set [3], the “one-nucleolus phenotype percent effect” value came to 12.6%.

With GUGAGUCAGGGUGGGGCUGG [hsa-miR-937-5p], the percent viability in data set [1] worked out at 41.5%. Further, the “5+ nucleoli phenotype percent effect” value in data set [2] is -10.1%. In addition, the “one-nucleolus phenotype percent effect” value in data set [3] is 19.2%.

In the case of GUGAGUCUCUAAGAAAAGAGGA [hsa-miR-627], the percent viability in data set [1] amounted to 62.9%. In data set [2], the “5+ nucleoli phenotype percent effect” value amounted to 7.75%. For the same sequence, in data set [3], the “one-nucleolus phenotype percent effect” value is -10.4%.

As to “GUGAGUGGGAGCCCCAGUGUGUG [hsa-miR-1238-5p]”, in data set [1], the percent viability is 95.1%. Besides, the “5+ nucleoli phenotype percent effect” value in data set [2] is 22.1%. Besides, in data set [3], the “one-nucleolus phenotype percent effect” value is -21.4%.

As to “GUGAGUGGGAGCCGGUGGGGCUG [hsa-miR-4758-5p]”, the percent viability in data set [1] amounted to 107%. The “5+ nucleoli phenotype percent effect” value in data set [2] was 48.5%. Further, the “one-nucleolus phenotype percent effect” value in data set [3] was -17.7%.

With GUGAGUGUGGAUCCUGGAGGAAU [hsa-miR-4658], in data set [1], the percent viability stood at 52.7%. Also, in data set [2], the “5+ nucleoli phenotype percent effect” value turned out to be 0.899%. In data set [3], the “one-nucleolus phenotype percent effect” value is -8.09%.

As to “GUGAGUGUGGAUUUGGCGGGGUU [hsa-miR-6790-5p]”, in data set [1], the percent viability turned out to be 31.8%. Moreover, the “5+ nucleoli phenotype percent effect” value in data set [2] was -26%. Besides, the “one-nucleolus phenotype percent effect” value in data set [3] amounted to 18.2%.

Take GUGCAAAAGUCAUCACGGUU [hsa-miR-548aw]: the percent viability in data set [1] was 57.6%. Moreover, the “5+ nucleoli phenotype percent effect” value in data set [2] is -29.9%. In data set [3], the “one-nucleolus phenotype percent effect” value was -0.384%.

As for “GUGCAUGGCUGUAUAUAUAACA [hsa-miR-5011-3p]”, in data set [1], the percent viability worked out at 56.9%. For the same sequence, in data set [2], the “5+ nucleoli phenotype percent effect” value came out at 19.5%. In data set [3], the “one-nucleolus phenotype percent effect” value stood at 0.75%.

Consider GUGCAUUGCUGUUGCAUUGC [hsa-miR-33b-5p], for which the percent viability in data set [1] was 48.5%. Further, the “5+ nucleoli phenotype percent effect” value in data set [2] was determined as 36%. In data set [3], the “one-nucleolus phenotype percent effect” value is -2.4%.
